The text below walks through data of patent publication US20130347134A1, “TRANSGENIC VON WILLEBRAND FACTOR ANIMALS AND USES THEREOF” (priority 2012, published 2013).

Test [1] concerns the target human platelet glycoprotein Ib alpha (GPIb α) on human platelets (human) (UniProt P07359). The experiment in a line: cell-based or functional assay.
For test [2] the target is unchanged. The experiment in a line: blocking in a parallel-plate flow chamber: human whole blood treated with mAb AP-1 perfused over surface-immobilized murine plasma VWF R1326H (the blocked ligand), shear rate 1,600 s^-1; about 4,600 without antibody.
For test [3] the target is unchanged. The experiment in a line: blocking in a parallel-plate flow chamber: human whole blood treated with mAb 6D1 perfused over surface-immobilized murine plasma VWF R1326H (the blocked ligand), shear rate 1,600 s^-1; about 4,600 without antibody.
Test [4] deals with murine platelet glycoprotein Ib alpha (GPIb α) on mouse platelets (mouse) (UniProt O35930). Kind of test: cell-based or functional assay.
Chain of murine platelet glycoprotein Ib alpha (GPIb α) on mouse platelets (mouse) (O35930 17-734): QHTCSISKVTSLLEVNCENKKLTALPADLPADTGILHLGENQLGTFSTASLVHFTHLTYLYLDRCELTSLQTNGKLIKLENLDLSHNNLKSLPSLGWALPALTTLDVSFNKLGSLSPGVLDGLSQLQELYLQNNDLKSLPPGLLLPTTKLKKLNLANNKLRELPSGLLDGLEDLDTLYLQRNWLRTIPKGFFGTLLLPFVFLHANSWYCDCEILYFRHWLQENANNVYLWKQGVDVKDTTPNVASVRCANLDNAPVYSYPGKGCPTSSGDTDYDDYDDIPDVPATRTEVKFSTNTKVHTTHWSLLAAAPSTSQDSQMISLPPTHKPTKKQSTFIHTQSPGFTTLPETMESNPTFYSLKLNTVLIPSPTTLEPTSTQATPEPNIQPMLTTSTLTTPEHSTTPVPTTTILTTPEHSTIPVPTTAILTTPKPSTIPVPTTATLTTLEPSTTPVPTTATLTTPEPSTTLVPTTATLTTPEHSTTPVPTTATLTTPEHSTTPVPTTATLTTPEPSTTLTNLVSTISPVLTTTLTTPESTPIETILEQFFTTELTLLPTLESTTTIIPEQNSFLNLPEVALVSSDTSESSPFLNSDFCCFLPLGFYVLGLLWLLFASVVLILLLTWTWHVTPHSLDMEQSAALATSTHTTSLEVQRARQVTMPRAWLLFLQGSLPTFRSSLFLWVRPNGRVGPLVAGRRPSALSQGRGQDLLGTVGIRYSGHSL
Test [5] deals with human platelet glycoprotein Ib alpha (GPIb α) on human platelets (human) (UniProt P07359). Kind of test: human whole blood over immobilized protein, parallel-plate flow chamber, 1600 s^-1.
Test [6] deals with human platelet integrin αIIb β3 on human platelets (human) (UniProt P08514). Kind of test: cell-based or functional assay.
The target of test [7] is human platelet glycoprotein Ib alpha (GPIb α) on human platelets (human) (UniProt P07359). Kind of test: translocation of human platelets on immobilized plasma VWF in flow.

GPIb α function-blocking antibody AP-1: in test [1], the human platelet thrombus size in VWF^1326R>H mice after pre-treatment with the mAb was 198 µm^2. The Human platelet accumulation/mm2 in test [2] is 0 /mm2.

For the substance “function-blocking monoclonal antibody 6D1 (anti-human GPIb α)”, the human platelet thrombus size in VWF^1326R>H mice after pre-treatment with the mAb in test [1] amounted to 265 µm^2. In test [3], the Human platelet accumulation/mm2 was 0 /mm2.

The substance “murine plasma von Willebrand factor (VWF), wild type, Q8CIZ8 764-2813” displayed a share of human platelets in total thrombus area, WT mice in test [1] of 5.7%. For the same substance, the ristocetin-induced platelet aggregation (RIPA), murine PRP, 2.5 mg/ml ristocetin in test [4] worked out at 30%. In test [5], this substance came in with a platelet deposition relative to same-species control of 10%.

Take “function-blocking monoclonal antibody 7E3 (anti-human αIIb β3)”: in test [6], the human platelet thrombus size in VWF^1326R>H mice after pre-treatment with the mAb stood at 529 µm^2.

For the substance “murine plasma VWF containing the 1326R>H mutation (VWF^1326R>H), Q8CIZ8 764-2813”, in test [1], the average thrombus size, human platelets in homozygous VWF^1326R>H mice is 8950 µm^2; the share of human cells in thrombi, laser injury in homozygous VWF^1326R>H mice amounted to 91.7%; the tail bleeding time of VWF^1326R>H mice infused with human platelets is 182 s. Besides, in test [4], the increase in tail bleeding time, heterozygous animals versus WT was found to be 1.9 fold; the reduction in thrombi formed on collagen, whole blood of knock-in mice, 1600 s^-1 was 70%; the reduction in thrombus formation on surface-immobilized collagen, whole blood of homozygous mutant mice (FIG. 26) was 80%. In addition, the translocation velocity of human platelets in test [7] stood at 3.5 µm/sec.
